Results: patent US20250326827A1 (SCHOLAR ROCK, published 2025)

Biological target: latent myostatin (human, UniProt O14793 24-266; O14793 267-375)
Assay: cell-based or functional assay

target engagement, as measured by latent myostatin (serum level after treatment vs baseline; 2 mg/kg and 20 mg/kg IV every 4 weeks): 100 fold
B1: Apitegromab (antibody, human IgG4 S228P, lambda, V domains shown)
VH: QVQLVESGGGVVQPGRSLRLSCAASGFTFSSYGMHWVRQAPGKGLEWVAVISYDGSNKYYADSVKGRFTISRDNSKNTLYLQMNSLRAEDTAVYYCARDLLVRFLEWSHYYGMDVWGQGTTVTVSS
VL: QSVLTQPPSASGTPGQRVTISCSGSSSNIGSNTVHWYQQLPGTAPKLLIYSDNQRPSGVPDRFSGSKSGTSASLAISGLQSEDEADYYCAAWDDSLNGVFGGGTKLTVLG
